According to patent US20150315267A1:

Biological target: soluble, freshly prepared monomeric Aβ(1-40) (UniProt P05067)
Experiment: capture ELISA, antibody immobilized, soluble monomeric Aβ(1-40) in solution

Work on 3D6 (antibody) yielded an EC50 of 1 nM.
